Literature values, collected in patent publication US20230372299A1, “PREPARATION OF TEREVALEFIM AND FORMULATIONS THEREOF” (Angion Biomedica Corp., priority 2020, published 2023).

With “HGF/SF: pleiotropic growth factor that stimulates cell growth, cell motility, morphogenesis and angiogenesis” as the substance, how does the half-life read?
The half-life was 3 to 5 min.
